Source: patent US20230357340A1

What was measured:
[1] = molecular target: recombinant mouse IL-18 protein (mouse) (UniProt P70380)
[2] = molecular target: recombinant human IL-18 (human) (UniProt Q14116); assay: cell-based or functional assay
recombinant human IL-18 (human), sequence (Q14116 37-193 limits assumed): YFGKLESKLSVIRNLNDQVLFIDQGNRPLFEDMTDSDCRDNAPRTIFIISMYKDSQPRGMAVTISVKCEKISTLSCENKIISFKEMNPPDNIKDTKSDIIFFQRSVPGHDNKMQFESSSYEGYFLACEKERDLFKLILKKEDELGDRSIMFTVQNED

recombinant mouse IL-18 protein (mouse), sequence (P70380 36-192 limits assumed): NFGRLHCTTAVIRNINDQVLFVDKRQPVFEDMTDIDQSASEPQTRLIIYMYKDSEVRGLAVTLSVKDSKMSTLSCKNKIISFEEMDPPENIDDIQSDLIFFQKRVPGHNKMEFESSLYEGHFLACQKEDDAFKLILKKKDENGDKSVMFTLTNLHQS

Row | IC50 (read off the curve); mouse IL-18-induced IFN-γ secretion by mouse CD4+ T cells [1] [nM] | IC50 of inhibition of IL-18-induced IFN-γ production in KG-1 cells [2] [nM] | Substance
1 | 1 | – | hIL18BP-His(SinoBio.) (from UniProt O95998)
2 | 0.3 | 0.024 | recombinant human interleukin-18-binding protein with C-terminal His-tag (hIL18BP-his8) (from UniProt O95998 31-194)
